Laboratory results: article PMC6099927

Molecular target: Plasmodium falciparum lactate dehydrogenase (PfLDH) (Plasmodium falciparum) (UniProt Q27743)
Experiment: APTEC plate capture assay
Details: 2x PBS binding buffer (recombinant PfLDH), 1 h, streptavidin plate coated with DNA, PBST (0.1% Tween-20) washes, absorbance 570 nm; blood: 1:1 with PBS 0.5% …

Chain of Plasmodium falciparum lactate dehydrogenase (PfLDH) (Plasmodium falciparum) (Q27743 whole entry): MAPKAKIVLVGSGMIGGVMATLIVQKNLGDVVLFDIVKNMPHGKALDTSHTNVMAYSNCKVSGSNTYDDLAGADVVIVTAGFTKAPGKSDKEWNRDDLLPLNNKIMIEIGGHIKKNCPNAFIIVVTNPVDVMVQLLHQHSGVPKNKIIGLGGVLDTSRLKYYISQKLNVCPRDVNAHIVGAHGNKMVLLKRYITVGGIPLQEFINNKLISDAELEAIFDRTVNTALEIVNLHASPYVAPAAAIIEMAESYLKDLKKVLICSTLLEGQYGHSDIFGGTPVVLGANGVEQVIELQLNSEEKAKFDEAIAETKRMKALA

Work on “GCAACAGAGCCCTATTCTGTCTCAGTCCACCGGGTTAGGAAACGCGAGTCAGT / CTGGGCGGTAGAACCATAGTGACCCAGCCGTCTACTTCCCTAACGCCTGCGTGAATAGGGCTCTGTTGC / CTGGGCGGTAGAACCATAGTGACCCAGCCGTCTACTTGATCTCAACTCAGTTACCCGGTGGACTGAGAC / CTGGGCGGTAGAACCATAGTGACCCAGCCGTCTACTTTCATCTGGGGCCTTTACTGACTCGCGTTTCCT / TAAGGCCCCAGATGATAAACCCAGGCCGGCCCT / TCGCTCGACAGAGATACTATTAGTACCAGGCCCGATAGGGCCGGCCTGGGTTT / TCGCAGGCGTTAGGGTTCGGGCCTGGTACTAAT / TACTGAGTTGAGATCTGTATCTCTGTCGAGCGA [prism with three aptamers]” yielded a Kd of 1.38 nM.
